Test results taken from US20240400686A1.

Target: Human CD3εδ (human) (UniProt P07766)
Experiment: SPR, sensorgrams at 10-300 nM; set-up not given

B1: humanized 26H8 Fab (Fab, V domains shown)
VH: QVQLQESGPGLVKPSETLSLTCTASGYTFTNYYIHWVRQSPGKGLEWIGWIYCGDGSTKFNEQFKDRTTLSADHSKTQASLKLSSVTAADTAIYFCARDWAGSYFFDFWGQGTMVTVSS
VL: DIQMTQSPSSLSASVGDRVTITCKSSQSLLNSRTRKNYLAWYQQKPGKAPKLLIYWASTRESGVPSRFSGSGSGTDFTFTISSLQPEDIATYYCKQSYILRTFGGGTKVEIKR
B1 was tested, and the Kd was 49 nM, the koff was 0.015 s⁻¹ and the kon was 300000 M⁻¹ s⁻¹.
